With prostate specific antigen (PSA) the “Kcat against Mu-HSSKLQ-AMC” value (Ac-GKSQYQ-AMC) was “˜10-fold improvement in the Kcat kinetic parameter”, the Kcat/Km (Ac-GKSQYQ-AMC) was 278 s^-1M^-1 and the “Kcat/Km ratio against Mu-HSSKLQ-AMC” value (Ac-GKSQYQ-AMC) was “Kcat/Km ratios that were 10-fold higher than the Mu-HSSKLQ-AMC test peptide”. For the same substance, the Km (Ac-GKSQYQ-AMC) was 343 µM, the kcat (Ac-GKSQYQ-AMC) was 0.09 s⁻¹ and the Kcat/Km (Ac-GSSKFQ-AMC) was 86 s^-1M^-1. The Km (Ac-GSSKFQ-AMC) was 666 µM, the kcat (Ac-GSSKFQ-AMC) was 0.057 s⁻¹ and the Kcat/Km (Mu-HSSKLQ-AMC) was 23.6 s^-1M^-1. For the same substance, the Km (Mu-HSSKLQ-AMC) was 470 µM, the kcat (Mu-HSSKLQ-AMC) was 0.011 s⁻¹ and the “Kcat against Mu-HSSKLQ-AMC” value (Ac-GSSKYQ-AMC) was “˜10-fold improvement in the Kcat kinetic parameter”. For the same substance, the Kcat/Km (Ac-GSSKYQ-AMC) was 227 s^-1M^-1, the “Kcat/Km ratio against Mu-HSSKLQ-AMC” value (Ac-GSSKYQ-AMC) was “Kcat/Km ratios that were 10-fold higher than the Mu-HSSKLQ-AMC test peptide” and the Km (Ac-GSSKYQ-AMC) was 500 µM. For the same substance, the kcat (Ac-GSSKYQ-AMC) was 0.113 s⁻¹, the “PSA hydrolysis (release of L12ADT, LC/MS)” value (Mu-HSSKLQ//L12ADT) was “the new prodrug was hydrolyzed dramatically better than the test peptide” and the “PSA hydrolysis (release of L12ADT, LC/MS)” value (Mu-SSKYQ//L12ADT) was “the new prodrug was hydrolyzed dramatically better than the test peptide”. The “Kcat against Mu-HSSKLQ-AMC” value (Ac-GsAKYQ-AMC) was “˜10-fold improvement in the Kcat kinetic parameter”, the Kcat/Km (Ac-GsAKYQ-AMC) was 218 s^-1M^-1 and the “Kcat/Km ratio against Mu-HSSKLQ-AMC” value (Ac-GsAKYQ-AMC) was “Kcat/Km ratios that were 10-fold higher than the Mu-HSSKLQ-AMC test peptide”. For the same substance, the Km (Ac-GsAKYQ-AMC) was 653 µM and the kcat (Ac-GsAKYQ-AMC) was 0.143 s⁻¹.
